Data published in patent US20240261333A1 (published 2024).

Experiments:
Assay in all cases: co-IP, anti-FLAG, lysate of cells with C-FLAG B3GNT2; mass spectrometry
[1] = target: T1, C1orf68 (human, UniProt Q5T750 1-250)
T1 construct: also called NP_001019850.1
Procedure: (§1) Cells were plated in 10-cm cell culture dishes and grown to 60-80% confluency. For each condition, two biological replicates were harvested for co-IP. Cells were washed with PBS and 4 mL of lysis buffer (20 mM HEPES, 1% Triton X-100, 150 mM NaCl, 1 mM EDTA, and 10% glycerol) containing protease inhibitor cocktail was added. Cells were scraped and lysate was incubated at 4° C. under rotary agitation for 1 h. Lysate was centrifuged at 14,000×g for 10 min at 4° C. Supernatant was transferred to a new tube and an aliquot was taken as the input. […] For Western blots, 10 μg/mL Chicken Anti-FLAG (Aves labs ET-DY100) and IgY control (R&D Systems AB-101-C) antibodies were biotinylated (Thermo Fisher Scientific 90407) and added to the respective conditions. Lysates with antibodies were incubated at 4° C. under rotary agitation overnight. For each mL of lysate, 50 μL of Pierce Protein A/G Magnetic Beads (Mass spectrometry; Thermo Fisher Scientific 88803) or Pierce Streptavidin Magnetic Beads (Western blot; Thermo Fisher Scientific 88817) was washed twice with lysis buffer. Lysates with antibodies were added to the beads and incubated at 4° C. under rotary agitation for 4 h. Beads were washed with lysis buffer 3 times and resuspended in lysis buffer for storage.
(§2) Magnetic beads were resuspended in 100 mM Tris pH 7.8, reduced, alkylated and digested with trypsin at 37° ° C. overnight. This solution was subjected to solid phase extraction to concentrate the peptides and remove unwanted reagents followed by injection onto a Shimadzu HPLC with fraction collector. Eight fractions were collected and after concentration were injected on a Waters NanoAcquity HPLC equipped with a self-packed Aeris 3 μm C18 analytical column 0.075 mm by 20 cm, (Phenomenex). Peptides were eluted using standard reverse-phase gradients. The effluent from the column was analyzed using a Thermo Orbitrap Elite mass spectrometer (nanospray configuration) operated in a data dependent manner for 54 minutes. The resulting fragmentation spectra were correlated against the known database using Proteome Discover 1.4 (Thermo Fisher Scientific).

[2] = target: T2, ATXN2 (human, UniProt Q99700 1-1313)
T2 construct: also called NP_002964.3
Procedure: as §1, §2

[3] = target: T3, HUWE1 (human, UniProt Q7Z6Z7 1-4374)
T3 construct: also called NP_113584.3 (+11)
Procedure: as §1, §2

[4] = target: T4, HNRNPA2B1 (human, UniProt P22626-2 1-341)
T4 construct: also called NP_002128.1 (+1)
Procedure: as §1, §2

[5] = target: T5, PRRC2A (human, UniProt P48634 1-2157)
T5 construct: also called NP_004629.3 (+1)
Procedure: as §1, §2

[6] = target: T6, NUFIP2 (human, UniProt Q7Z417 1-695)
T6 construct: also called NP_065823.1
T6 sequence (looked up): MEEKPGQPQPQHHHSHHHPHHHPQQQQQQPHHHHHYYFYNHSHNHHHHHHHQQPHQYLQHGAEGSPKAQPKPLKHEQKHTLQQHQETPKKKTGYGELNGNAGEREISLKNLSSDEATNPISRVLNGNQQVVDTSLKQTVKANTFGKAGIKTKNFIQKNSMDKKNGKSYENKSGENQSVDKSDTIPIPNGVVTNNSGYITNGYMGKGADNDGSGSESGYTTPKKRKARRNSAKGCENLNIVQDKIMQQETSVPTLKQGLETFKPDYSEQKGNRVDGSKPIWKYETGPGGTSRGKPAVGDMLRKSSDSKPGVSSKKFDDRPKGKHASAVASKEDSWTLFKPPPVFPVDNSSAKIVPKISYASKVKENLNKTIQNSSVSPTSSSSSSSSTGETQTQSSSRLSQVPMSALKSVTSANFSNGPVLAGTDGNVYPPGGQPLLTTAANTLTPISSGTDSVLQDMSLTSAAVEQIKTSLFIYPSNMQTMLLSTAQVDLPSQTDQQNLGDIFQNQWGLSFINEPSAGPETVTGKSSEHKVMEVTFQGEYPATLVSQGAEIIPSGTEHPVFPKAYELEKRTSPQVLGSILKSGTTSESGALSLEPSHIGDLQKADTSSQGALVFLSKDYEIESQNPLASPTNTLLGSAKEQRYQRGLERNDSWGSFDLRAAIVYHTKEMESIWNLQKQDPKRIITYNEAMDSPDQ
Procedure: as §1, §2

[7] = target: T7, GGCT (human, UniProt O75223 1-188)
T7 construct: also called NP_076956.1
T7 sequence (looked up): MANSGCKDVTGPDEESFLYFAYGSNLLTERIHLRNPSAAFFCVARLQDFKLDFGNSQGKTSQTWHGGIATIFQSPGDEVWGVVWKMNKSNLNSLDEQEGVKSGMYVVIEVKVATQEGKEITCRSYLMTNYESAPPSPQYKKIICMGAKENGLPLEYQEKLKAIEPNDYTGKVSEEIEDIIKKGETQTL
Procedure: as §1, §2

[8] = target: T8, MYH11 (human, UniProt P35749-3 1-1945, limits assumed)
T8 construct: also called NP_001035202.1 (+4)
Procedure: as §1, §2

[9] = target: T9, PRBP1 (human, UniProt P26599 1-557)
T9 construct: Label 'PRBP1' is probably a misprint of PTBP1; also called NP_002810.1 (+4)
Procedure: as §1, §2

[10] = target: FAU (human, UniProt P62861 75-133)
Procedure: as §1, §2

T1 sequence (Q5T750 whole entry): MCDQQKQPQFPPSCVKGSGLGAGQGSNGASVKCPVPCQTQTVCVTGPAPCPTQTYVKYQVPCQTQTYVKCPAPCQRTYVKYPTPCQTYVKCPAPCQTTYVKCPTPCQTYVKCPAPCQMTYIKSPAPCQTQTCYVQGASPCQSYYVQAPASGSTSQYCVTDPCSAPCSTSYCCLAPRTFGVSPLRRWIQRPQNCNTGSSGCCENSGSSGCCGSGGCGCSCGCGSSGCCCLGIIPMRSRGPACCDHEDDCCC
T4 sequence (P22626 other isoform, or with tags, fused parts or gaps limits assumed): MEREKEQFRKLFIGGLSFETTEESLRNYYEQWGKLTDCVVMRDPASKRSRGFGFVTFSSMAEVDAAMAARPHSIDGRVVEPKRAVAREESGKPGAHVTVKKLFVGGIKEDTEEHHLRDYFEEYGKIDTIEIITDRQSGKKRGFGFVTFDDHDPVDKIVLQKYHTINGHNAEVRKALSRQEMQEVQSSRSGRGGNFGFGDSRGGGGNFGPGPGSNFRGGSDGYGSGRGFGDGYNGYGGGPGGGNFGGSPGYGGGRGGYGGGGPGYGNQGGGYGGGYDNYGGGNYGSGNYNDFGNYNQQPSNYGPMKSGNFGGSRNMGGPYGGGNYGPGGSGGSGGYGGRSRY
T9 sequence (P26599 whole entry): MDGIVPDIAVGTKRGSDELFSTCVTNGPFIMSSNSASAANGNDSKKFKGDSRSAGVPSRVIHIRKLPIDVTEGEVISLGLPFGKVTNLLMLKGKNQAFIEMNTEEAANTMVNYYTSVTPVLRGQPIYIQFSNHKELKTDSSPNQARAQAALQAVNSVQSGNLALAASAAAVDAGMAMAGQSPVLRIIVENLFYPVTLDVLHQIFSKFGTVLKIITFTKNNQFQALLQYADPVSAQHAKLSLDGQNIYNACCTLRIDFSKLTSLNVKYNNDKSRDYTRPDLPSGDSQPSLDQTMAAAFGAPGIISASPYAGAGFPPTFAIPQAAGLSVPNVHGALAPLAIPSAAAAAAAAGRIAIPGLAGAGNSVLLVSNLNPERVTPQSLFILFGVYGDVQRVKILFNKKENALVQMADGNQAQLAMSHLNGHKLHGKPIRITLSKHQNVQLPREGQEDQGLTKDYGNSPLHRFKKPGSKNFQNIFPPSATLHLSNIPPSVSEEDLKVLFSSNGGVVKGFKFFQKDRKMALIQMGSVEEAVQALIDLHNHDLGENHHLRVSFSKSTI
T2 sequence (Q99700 whole entry): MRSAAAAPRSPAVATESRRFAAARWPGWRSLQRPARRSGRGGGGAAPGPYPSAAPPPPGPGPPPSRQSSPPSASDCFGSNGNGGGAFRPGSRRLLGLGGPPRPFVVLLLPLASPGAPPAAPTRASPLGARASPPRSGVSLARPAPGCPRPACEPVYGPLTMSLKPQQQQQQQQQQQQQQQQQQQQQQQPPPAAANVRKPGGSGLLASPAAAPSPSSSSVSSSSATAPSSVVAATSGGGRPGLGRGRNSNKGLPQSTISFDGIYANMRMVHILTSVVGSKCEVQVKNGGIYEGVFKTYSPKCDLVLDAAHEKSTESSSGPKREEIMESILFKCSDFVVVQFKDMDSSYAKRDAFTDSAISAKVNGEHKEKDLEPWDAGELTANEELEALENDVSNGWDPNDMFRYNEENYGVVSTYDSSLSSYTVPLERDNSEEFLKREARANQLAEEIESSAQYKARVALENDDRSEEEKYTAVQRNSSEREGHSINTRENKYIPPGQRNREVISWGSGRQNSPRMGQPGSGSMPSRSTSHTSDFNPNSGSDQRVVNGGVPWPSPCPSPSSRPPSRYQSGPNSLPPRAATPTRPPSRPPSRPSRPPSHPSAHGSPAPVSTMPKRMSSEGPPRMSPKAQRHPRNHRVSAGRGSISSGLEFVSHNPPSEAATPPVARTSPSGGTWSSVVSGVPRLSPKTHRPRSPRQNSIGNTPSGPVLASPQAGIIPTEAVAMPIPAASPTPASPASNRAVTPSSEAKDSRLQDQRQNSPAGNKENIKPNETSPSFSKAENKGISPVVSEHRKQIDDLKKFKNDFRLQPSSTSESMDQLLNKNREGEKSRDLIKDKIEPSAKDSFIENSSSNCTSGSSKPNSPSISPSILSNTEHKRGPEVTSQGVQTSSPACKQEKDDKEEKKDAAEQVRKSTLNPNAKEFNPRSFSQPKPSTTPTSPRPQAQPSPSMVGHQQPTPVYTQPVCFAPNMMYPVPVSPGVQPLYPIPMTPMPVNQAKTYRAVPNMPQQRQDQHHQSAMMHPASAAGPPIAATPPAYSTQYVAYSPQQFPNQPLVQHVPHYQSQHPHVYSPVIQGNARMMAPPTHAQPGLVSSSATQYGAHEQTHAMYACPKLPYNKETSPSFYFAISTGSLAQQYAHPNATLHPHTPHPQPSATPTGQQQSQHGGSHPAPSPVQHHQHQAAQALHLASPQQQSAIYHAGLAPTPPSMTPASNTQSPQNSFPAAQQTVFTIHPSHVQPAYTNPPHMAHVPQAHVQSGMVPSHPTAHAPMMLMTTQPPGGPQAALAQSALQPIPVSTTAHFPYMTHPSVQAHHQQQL
T5 sequence (P48634 whole entry): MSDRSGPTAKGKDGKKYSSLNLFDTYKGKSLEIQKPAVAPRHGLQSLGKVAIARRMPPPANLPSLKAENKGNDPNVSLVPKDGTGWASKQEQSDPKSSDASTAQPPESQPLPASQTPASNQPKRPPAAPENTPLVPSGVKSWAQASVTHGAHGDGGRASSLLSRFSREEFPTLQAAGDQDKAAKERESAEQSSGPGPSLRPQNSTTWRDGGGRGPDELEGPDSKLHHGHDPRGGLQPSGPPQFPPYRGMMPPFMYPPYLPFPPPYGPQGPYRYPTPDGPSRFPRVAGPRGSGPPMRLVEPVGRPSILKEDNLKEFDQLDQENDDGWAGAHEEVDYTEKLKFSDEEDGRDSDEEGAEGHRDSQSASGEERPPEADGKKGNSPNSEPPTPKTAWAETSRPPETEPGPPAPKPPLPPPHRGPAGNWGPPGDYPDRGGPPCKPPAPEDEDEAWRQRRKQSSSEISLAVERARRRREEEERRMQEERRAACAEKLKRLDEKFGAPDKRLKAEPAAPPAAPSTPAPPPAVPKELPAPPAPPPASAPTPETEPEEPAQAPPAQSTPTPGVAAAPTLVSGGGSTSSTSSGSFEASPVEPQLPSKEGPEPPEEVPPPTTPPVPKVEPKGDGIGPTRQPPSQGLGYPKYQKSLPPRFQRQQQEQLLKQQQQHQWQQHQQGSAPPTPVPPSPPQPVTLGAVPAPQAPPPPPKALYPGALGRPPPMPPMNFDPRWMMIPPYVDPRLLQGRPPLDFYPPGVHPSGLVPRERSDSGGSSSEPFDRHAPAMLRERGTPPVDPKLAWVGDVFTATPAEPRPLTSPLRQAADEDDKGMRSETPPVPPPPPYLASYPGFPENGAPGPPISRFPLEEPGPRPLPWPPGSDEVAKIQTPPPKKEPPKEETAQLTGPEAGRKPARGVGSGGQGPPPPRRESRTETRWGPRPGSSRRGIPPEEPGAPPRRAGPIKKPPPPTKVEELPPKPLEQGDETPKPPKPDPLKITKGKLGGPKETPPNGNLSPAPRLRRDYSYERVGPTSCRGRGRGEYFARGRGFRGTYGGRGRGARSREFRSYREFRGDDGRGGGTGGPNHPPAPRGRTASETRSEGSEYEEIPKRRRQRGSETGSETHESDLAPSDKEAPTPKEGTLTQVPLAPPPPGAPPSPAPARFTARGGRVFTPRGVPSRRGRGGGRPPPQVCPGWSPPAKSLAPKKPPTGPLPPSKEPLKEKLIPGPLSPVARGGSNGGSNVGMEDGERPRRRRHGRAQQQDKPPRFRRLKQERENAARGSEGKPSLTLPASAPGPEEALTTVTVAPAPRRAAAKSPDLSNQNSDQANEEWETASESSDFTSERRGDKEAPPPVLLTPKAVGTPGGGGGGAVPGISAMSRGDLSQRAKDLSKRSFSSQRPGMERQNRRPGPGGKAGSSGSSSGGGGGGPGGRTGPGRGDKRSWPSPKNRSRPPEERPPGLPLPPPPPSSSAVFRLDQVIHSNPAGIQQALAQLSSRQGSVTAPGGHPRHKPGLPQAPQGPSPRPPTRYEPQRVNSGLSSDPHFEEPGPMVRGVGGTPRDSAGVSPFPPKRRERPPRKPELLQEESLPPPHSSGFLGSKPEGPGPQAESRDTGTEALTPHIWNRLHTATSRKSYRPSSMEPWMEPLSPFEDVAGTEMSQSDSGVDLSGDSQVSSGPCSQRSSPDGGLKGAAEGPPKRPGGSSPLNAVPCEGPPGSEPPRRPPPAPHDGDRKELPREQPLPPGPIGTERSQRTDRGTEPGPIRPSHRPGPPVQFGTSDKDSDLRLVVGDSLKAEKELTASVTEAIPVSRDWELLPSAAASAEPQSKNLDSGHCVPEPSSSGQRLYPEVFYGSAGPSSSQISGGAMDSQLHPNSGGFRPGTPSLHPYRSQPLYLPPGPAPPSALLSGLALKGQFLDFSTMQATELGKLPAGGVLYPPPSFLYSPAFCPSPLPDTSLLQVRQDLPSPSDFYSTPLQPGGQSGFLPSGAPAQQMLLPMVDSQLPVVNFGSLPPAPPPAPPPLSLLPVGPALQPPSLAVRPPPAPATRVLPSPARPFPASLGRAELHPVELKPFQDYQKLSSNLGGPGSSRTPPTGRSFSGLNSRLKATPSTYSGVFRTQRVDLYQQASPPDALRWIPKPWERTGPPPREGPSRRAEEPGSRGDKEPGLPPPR

- co-IP mass spectrometry count [1]: 2
- co-IP mass spectrometry count [2]: 3
- co-IP mass spectrometry count [3]: 0
- co-IP mass spectrometry count [4]: 8
- co-IP mass spectrometry count [5]: 5
- co-IP mass spectrometry count [6]: 5
- co-IP mass spectrometry count [7]: 0
- co-IP mass spectrometry count [8]: 7
- co-IP mass spectrometry count [9]: 9
- co-IP mass spectrometry count [10]: 7
B1: C-terminal FLAG tagged B3GNT2 (enzyme, human, UniProt Q9NY97 1-397, looked up)
chain: MSVGRRRIKLLGILMMANVFIYFIMEVSKSSSQEKNGKGEVIIPKEKFWKISTPPEAYWNREQEKLNRQYNPILSMLTNQTGEAGRLSNISHLNYCEPDLRVTSVVTGFNNLPDRFKDFLLYLRCRNYSLLIDQPDKCAKKPFLLLAIKSLTPHFARRQAIRESWGQESNAGNQTVVRVFLLGQTPPEDNHPDLSDMLKFESEKHQDILMWNYRDTFFNLSLKEVLFLRWVSTSCPDTEFVFKGDDDVFVNTHHILNYLNSLSKTKAKDLFIGDVIHNAGPHRDKKLKYYIPEVVYSGLYPPYAGGGGFLYSGHLALRLYHITDQVHLYPIDDVYTGMCLQKLGLVPEKHKGFRTFDIEEKNKNNICSYVDLMLVHSRKPQEMIDIWSQLQSAHLKC
notes: Overexpressed in cells and pulled down from the lysate with mouse anti-FLAG antibody; also called C-FLAG B3GNT2; C-term flag; not shown: C-terminal FLAG tag
